Literature values in patent US9938510B2, “Photobacterium sp. alpha-2-6-sialyltransferase variants” (The Regents of the University of California, priority 2014, dated 2018).

Details: earlier reports (Ding 2011; Sun 2008); cited from earlier work

B1: Psp26ST(15-501)-His6: recombinant Photobacterium sp. JH-ISH-224 α2-6-sialyltransferase, residues 15-501, C-terminal His6, wild-type; SEQ ID NO: 23 (protein)
chain: CNNSEENTQSIIKNDINKTIIDEEYVNLEPINQSNISFTKHSWVQTCGTQQLLTEQNKESISLSVVAPRLDDDEKYCFDFNGVSNKGEKYITKVTLNVVAPSLEVYVDHASLPTLQQLMDIIKSEEENPTAQRYIAWGRIVPTDEQMKELNITSFALINNHTPADLVQEIVKQAQTKHRLNVKLSSNTAHSFDNLVPILKELNSFNNVTVTNIDLYDDGSAEYVNLYNWRDTLNKTDNLKIGKDYLEDVINGINEDTSNTGTSSVYNWQKLYPANYHFLRKDYLTLEPSLHELRDYIGDSLKQMQWDGFKKFNSKQQELFLSIVNFDKQKLQNEYNSSNLPNFVFTGTTVWAGNHEREYYAKQQINVINNAINESSPHYLGNSYDLFFKGHPGGGIINTLIMQNYPSMVDIPSKISFEVLMMTDMLPDAVAGIASSLYFTIPAEKIKFIVFTSTETITDRETALRSPLVQVMIKLGIVKEENVLFWA
modifications: C-terminal His6; Synthetic Psp26ST(15-501) WILD TYPE
expression level of soluble protein: 25 mg/L
